The target in assay [1] is PIK3R1 N-terminal SH2 domain (human). The assay is described as follows: SPR; Biacore 3000; 6X His SH2 proteins held on a Ni-NTA chip, dye-free peptides in solution, equilibrium.
Assay [2] has as its target TNS3 SH2 domain (human) (UniProt Q68CZ2). The assay is described as above.
The target of assay [3] is PLCG1 C-terminal SH2 domain (human). The description is as above.
Assay [4] concerns the target SYK N-terminal SH2 domain (human). The assay is described as follows: peptide or protein array; SH2/PTB proteins spotted on aldehyde slides, rhodamine peptide titrated in buffer B (20 mM HEPES, 100 mM KCl, 0.1% Tween-20, 5 mM DTT, pH 7.8), 1 h at room temperature; replicate assays.
A further assay deals with GRAP2 SH2 domain (human) (UniProt O75791). The assay is described as above.
Assay [5] deals with TNS3 SH2 domain (human) (UniProt Q68CZ2). The assay is described as above.
The target of assay [6] is PLCG1 tandem SH2 domains (human). Described as above.
The target of the next assay is LCK SH2 domain (human) (UniProt P06239). The description is as above.
The target of the next assay is SRC SH2 domain (human) (UniProt P12931). The description is as above.
Assay [7] has as its target SH2D3A SH2 domain (human) (UniProt Q9BRG2). The assay is described as above.
The target of a further assay is TEC SH2 domain (human) (UniProt P42680). Described as above.
In the next assay the target is ITK SH2 domain (human) (UniProt Q08881). Described as above.
The target in the next assay is GRB7 SH2 domain (human) (UniProt Q14451). The assay is described as above.
The target in assay [8] is SYK tandem SH2 domains (human). Described as above.
A further assay has as its target BLK SH2 domain (human) (UniProt P51451). The assay is described as above.
For assay [9], the target named is SH3BP2 SH2 domain (human) (UniProt P78314). The description is as above.
In the next assay the target is FES SH2 domain (human) (UniProt P07332). The assay is described as above.
Another assay has as its target YES1 SH2 domain (human) (UniProt P07947). The description is as above.
Assay [10] addresses PLCG2 tandem SH2 domains (human). The assay is described as above.
Assay [11] deals with PIK3R3 tandem SH2 domains (human). The description is as above.
Assay [12] addresses RASA1 N-terminal SH2 domain (human) (UniProt P20936). The assay is described as above.
The target of a further assay is TNS1 SH2 domain (human) (UniProt Q9HBL0). Described as above.
The target of assay [13] is PIK3R3 C-terminal SH2 domain (human). The assay is described as follows: SPR; Biacore 3000; 6X His SH2 proteins held on a Ni-NTA chip, dye-free peptides in solution, equilibrium. On the technique in general: Surface plasmon resonance follows binding to a sensor surface in real time, without labels.
A further assay has as its target SHC3 SH2 domain (human) (UniProt Q92529). The description is as above.
Assay [14] deals with ErbB1 pY900 phosphopeptide, rhodamine-labelled (human). The assay is described as follows: fluorescence polarisation; saturation binding in solution: rhodamine peptide fixed at 10 nM, protein titrated 0.002-10 uM, 20 min at room temperature; assay buffer 20 mM HEPES, 100 mM KCl, 0.1% Tween-20, 5 mM DTT, pH 7.8; apparent KD. A general note: In fluorescence polarisation assays a small probe gives low polarisation when free and higher when bound to something large.

In assay [15] the target is ErbB4 pY906 phosphopeptide, rhodamine-labelled (human). Described as above.
In assay [16] the target is MET pY1313 phosphopeptide, rhodamine-labelled. The description is as above.
Assay [17] addresses KIT pY936 phosphopeptide, rhodamine-labelled. Described as above.
In assay [18] the target is ErbB2 pY685 phosphopeptide, rhodamine-labelled (human). Described as above.
Assay [19] addresses ErbB1 pY801 phosphopeptide, rhodamine-labelled (human). The description is as above.
Assay [20] has as its target ErbB1 pY978 phosphopeptide, rhodamine-labelled (human). The description is as above.
For assay [21], the target named is ErbB4 pY833 phosphopeptide, rhodamine-labelled (human). The description is as above.

Several values for one entry are separate records, joined by “and”; a condition that tells them apart may be missing. Equal values may be shown once.

LCK SH2 domain (human), sequence (P06239 127-224): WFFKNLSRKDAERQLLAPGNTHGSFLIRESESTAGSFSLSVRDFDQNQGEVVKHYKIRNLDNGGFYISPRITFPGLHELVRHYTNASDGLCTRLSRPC
SH2D3A SH2 domain (human), sequence (Q9BRG2 15-114): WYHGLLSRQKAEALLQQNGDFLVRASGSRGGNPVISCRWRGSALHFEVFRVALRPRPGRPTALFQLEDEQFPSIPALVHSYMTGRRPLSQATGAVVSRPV
GRB7 SH2 domain (human), sequence (Q14451 431-527): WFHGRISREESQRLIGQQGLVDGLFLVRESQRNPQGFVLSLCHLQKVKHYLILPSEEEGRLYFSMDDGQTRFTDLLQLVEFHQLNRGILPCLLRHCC
TNS3 SH2 domain (human), sequence (Q68CZ2 1172-1282): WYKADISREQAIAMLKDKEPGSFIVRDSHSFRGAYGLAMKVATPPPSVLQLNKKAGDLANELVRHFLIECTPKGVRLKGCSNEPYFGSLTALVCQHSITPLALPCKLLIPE
YES1 SH2 domain (human), sequence (P07947 158-255): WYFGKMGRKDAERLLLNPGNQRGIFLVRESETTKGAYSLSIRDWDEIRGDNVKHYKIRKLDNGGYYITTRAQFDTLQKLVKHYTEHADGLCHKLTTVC
RASA1 N-terminal SH2 domain (human), sequence (P20936 whole entry, the tested form may be a part): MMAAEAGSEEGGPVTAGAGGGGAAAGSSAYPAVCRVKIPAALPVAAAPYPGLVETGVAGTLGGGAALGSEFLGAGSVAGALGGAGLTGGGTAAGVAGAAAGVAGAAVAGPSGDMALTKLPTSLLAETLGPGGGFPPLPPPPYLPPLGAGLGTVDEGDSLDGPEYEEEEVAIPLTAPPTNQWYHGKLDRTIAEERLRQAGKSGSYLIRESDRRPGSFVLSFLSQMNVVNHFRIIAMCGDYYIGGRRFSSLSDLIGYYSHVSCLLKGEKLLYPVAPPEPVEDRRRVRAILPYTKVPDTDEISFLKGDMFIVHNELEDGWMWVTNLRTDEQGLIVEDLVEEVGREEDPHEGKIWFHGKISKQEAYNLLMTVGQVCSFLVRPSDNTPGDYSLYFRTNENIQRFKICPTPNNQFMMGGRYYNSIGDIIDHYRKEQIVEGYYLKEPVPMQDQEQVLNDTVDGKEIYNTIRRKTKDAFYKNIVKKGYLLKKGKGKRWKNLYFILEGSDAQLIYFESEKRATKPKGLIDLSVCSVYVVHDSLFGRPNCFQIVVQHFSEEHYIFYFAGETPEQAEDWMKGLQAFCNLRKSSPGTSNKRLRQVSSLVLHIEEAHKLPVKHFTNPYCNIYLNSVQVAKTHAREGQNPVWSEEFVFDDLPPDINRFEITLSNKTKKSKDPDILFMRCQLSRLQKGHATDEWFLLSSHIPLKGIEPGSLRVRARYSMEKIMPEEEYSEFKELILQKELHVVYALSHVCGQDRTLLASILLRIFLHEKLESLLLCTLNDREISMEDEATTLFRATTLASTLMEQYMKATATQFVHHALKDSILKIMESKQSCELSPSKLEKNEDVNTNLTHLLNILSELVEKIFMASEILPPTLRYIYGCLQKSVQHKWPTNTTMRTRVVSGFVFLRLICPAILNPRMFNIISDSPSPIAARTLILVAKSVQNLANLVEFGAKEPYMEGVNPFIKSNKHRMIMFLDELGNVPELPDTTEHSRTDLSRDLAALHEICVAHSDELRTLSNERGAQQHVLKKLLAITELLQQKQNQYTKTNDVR
SHC3 SH2 domain (human), sequence (Q92529 499-590): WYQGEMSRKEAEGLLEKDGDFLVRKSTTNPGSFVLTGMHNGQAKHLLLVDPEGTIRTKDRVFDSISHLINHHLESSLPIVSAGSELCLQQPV
FES SH2 domain (human), sequence (P07332 460-549): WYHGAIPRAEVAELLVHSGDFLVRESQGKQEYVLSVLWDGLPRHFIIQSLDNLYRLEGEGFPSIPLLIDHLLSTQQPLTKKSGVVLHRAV
BLK SH2 domain (human), sequence (P51451 124-220): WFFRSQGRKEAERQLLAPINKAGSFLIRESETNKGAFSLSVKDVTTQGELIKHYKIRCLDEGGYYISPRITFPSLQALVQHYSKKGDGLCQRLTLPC
SH3BP2 SH2 domain (human), sequence (P78314 457-555): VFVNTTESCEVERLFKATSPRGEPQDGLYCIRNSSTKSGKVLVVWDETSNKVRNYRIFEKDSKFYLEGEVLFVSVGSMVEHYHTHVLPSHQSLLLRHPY
TEC SH2 domain (human), sequence (P42680 247-345): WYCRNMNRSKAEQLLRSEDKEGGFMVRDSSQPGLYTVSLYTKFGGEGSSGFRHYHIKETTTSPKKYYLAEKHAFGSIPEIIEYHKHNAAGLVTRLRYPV
ITK SH2 domain (human), sequence (Q08881 239-338): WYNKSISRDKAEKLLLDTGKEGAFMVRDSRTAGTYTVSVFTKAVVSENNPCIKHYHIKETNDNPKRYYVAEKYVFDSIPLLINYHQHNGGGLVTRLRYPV
TNS1 SH2 domain (human), sequence (Q9HBL0 1567-1676): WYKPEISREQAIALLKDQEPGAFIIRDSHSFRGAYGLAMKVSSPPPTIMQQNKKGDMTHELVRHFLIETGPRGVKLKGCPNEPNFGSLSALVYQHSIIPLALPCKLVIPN
GRAP2 SH2 domain (human), sequence (O75791 58-149): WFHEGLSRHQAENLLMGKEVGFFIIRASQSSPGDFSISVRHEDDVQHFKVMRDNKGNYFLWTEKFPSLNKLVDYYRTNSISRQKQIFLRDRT

As to ErbB1 pY801 phosphopeptide, dye-free, the values for the Kd (in assay [1]; with TNS3 SH2 domain (human) [2]; in [3]) were 2800 nM, 916 nM and 2330 nM, respectively.

Take “ErbB3 pY789 phosphopeptide, rhodamine-labelled, for protein microarrays”: the Kd was 609 nM and 1330 nM in assay [4]; 1310 nM with GRAP2 SH2 domain (human); 802 nM in the assay with TNS3 SH2 domain (human) [5]; 380 nM in assay [6]; 550 nM and 1140 nM and 1120 nM with LCK SH2 domain (human); 1850 nM and 424 nM with SRC SH2 domain (human). The Kd in assay [7] was 170 nM and 401 nM and 402 nM; in the assay with TEC SH2 domain (human), 1660 nM; with ITK SH2 domain (human), 1160 nM; with GRB7 SH2 domain (human), 1190 nM.

Regarding “ErbB3 pY1132 phosphopeptide, rhodamine-labelled, for protein microarrays”, the Kd in [8] was 785 nM and 4980 nM; with BLK SH2 domain (human), 199 nM; in assay [4], 2400 nM; in assay [9], 6400 nM; with FES SH2 domain (human) it was 3200 nM; in the assay with YES1 SH2 domain (human) it was 735 nM and 2260 nM. Also, the Kd in assay [10] was found to be 1190 nM; in assay [11], 7.73 nM; in [12] it was 5150 nM; in the assay with TNS1 SH2 domain (human), 1.44 nM; with GRB7 SH2 domain (human), 10 nM.

With ErbB4 pY906 phosphopeptide, dye-free, the Kd was 566 nM in [13] and 6710 nM in the assay with SHC3 SH2 domain (human).

In the case of “PIK3R3 C-terminal SH2 domain (domain or fragment)”, the Kd in assay [14] amounted to 5830 nM; in assay [15], 1840 nM; in assay [16], 255 nM; in assay [17], 8380 nM; in assay [18], 4430 nM.

As for “PLCG1 C-terminal SH2 domain (domain or fragment)”, the Kd in assay [14] worked out at 15500 nM; in assay [19] it was 9440 nM; in assay [16], 2280 nM; in assay [20], 1370 nM; in assay [21] it was 4730 nM.

The values above are taken from article PMC3433420.
